This note sets out measurements from US20230416343A1 (SORRENTO THERAPEUTICS, published 2023).

In assay [1] the target is SARS-CoV-2 variant spike protein F490S on HEK293 cells (SARS-CoV-2, UniProt P0DTC2 14-1273).
Assay [2] addresses SARS-CoV-2 variant spike protein triple mutant K417N, E484K, and N501Y on HEK293 cells (SARS-CoV-2, UniProt P0DTC2 14-1273).
The target in assay [3] is T1, SARS-CoV-2 D614G mutant spike protein expressed on HEK293 cells (SARS-CoV-2, UniProt P0DTC2 14-1273).
Assay [4] addresses SARS-CoV-2 variant spike protein S494P on HEK293 cells (SARS-CoV-2, UniProt P0DTC2 14-1273).
Assay [5] has as its target SARS-CoV-2 variant spike protein E484K on HEK293 cells (SARS-CoV-2, UniProt P0DTC2 14-1273).
Assay [6] deals with S protein of live SARS-CoV-2 Alpha variant virus (SARS-CoV-2, UniProt P0DTC2 14-1273). As to the kind of experiment: cell-based or functional assay.
For assay [7], the target named is S protein of live SARS-CoV-2 strain 2020001 (spike protein having the D614G mutation) (SARS-CoV-2, UniProt P0DTC2 14-1273). The assay is described as follows: cell-based or functional assay.
Assay [8] addresses SARS-CoV-2 spike protein expressed on HEK293 cells (SARS-CoV-2, UniProt P0DTC2 14-1273).
Assay [9] deals with T1, SARS-CoV-2 D614G mutant spike protein …. This is another data set of the same source.

Values joined by “and” are separate entries in the source; they are usually repeats but may differ in a detail not shown here. Equal entries are not always repeated. Where two headings read alike, the source gives them in different places. Some results are limits rather than exact numbers.

B1: S1D7270LALA antibody (STI-2020) (antibody, V domains shown)
VH: EVQLVESGGGLIQPGGSLRLSCAASGFTVSSNYMSWVRQAPGKGLEWVSIIYPGGSTEYADSVKGRFTISRDNSRNTLYLQMNSLRAEDTAVYYCARELGYYGMDVWGQGTTVTVSS
VL: DIQMTQSPSSVSASVGDRVTITCRASQGISTWLVWYQQKPGKAPNLLIYGASSLQSGVPSRFSGSGSGTDFTLTISSLQPEDFATYYCQQANAYPYTFGQGTKLEIK
As for B1, the EC50 (in general, the midpoint of the concentration-response curve) in [1] is 48 µg/mL; in [2], more than 10000 µg/mL; in [3], 130 µg/mL; in assay [4], 131 µg/mL; in assay [5], 140 µg/mL; in assay [8] it was 0.12 µg/mL. The molecule further returned a 50% effective concentration (EC50) in assay [9] of 0.13 µg/mL. For the same molecule, the “IC50, plaque reduction neutralization test on Vero E6 cells, live virus” value in assay [6] was 0.00908 µg/mL and 0.0164 µg/mL. The “IC50, inhibition of cytopathic effect (CPE) on Vero E6 cells, live virus” value in assay [7] worked out at 0.055 µg/mL.
